Values of other authors, collected in US20180134803A1, “TREATMENT OF HER2-POSITIVE BREAST CANCER” (Genentech, Inc., priority 2016, published 2018).

Assays:
[1] = in vivo
[2] = test system: incurable, locally advanced, recurrent or metastatic solid tumors

For “Pertuzumab: antibody comprising the variable light and variable heavy amino acid sequences in SEQ ID NOs: 7 and 8; HER dimerization inhibitor”, which mean clearance [1] is on record?
The mean clearance was 2.69 to 3.74 mL/day/kg.

What about the “mean terminal elimination half-life” value [1] of the same substance?
The value was 15.3 to 27.6 days.

And the confirmed partial responses ([2]; Phase I, IV every 3 weeks)?
The confirmed partial responses was “Two”.

What about the “tumor regression, patients evaluable for response” value ([2]; Phase I, IV every 3 weeks) of the same substance?
The value was 3 of 20.

And the tolerability ([2]; in vivo, iv)?
The tolerability was “generally well tolerated”.
